Results published in PMC3561989.

Experiments:
hnRNP A1 (cited work) [1] = molecular target: hnRNP A1 (cited work) (UniProt P09651); assay: fluorescence assay; conditions: cited from earlier work
hnRNP A1 (cited work) [2] = molecular target: hnRNP A1 (cited work) (UniProt P09651); assay: filter binding; conditions: cited from earlier work
Lin28 ZnF = molecular target: T1, Lin28 ZnF (UniProt Q9H9Z2 137-176); assay: plate binding, coated protein
T1 chain: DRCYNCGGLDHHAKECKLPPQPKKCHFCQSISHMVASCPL

Chain of hnRNP A1 (cited work) (P09651 whole entry): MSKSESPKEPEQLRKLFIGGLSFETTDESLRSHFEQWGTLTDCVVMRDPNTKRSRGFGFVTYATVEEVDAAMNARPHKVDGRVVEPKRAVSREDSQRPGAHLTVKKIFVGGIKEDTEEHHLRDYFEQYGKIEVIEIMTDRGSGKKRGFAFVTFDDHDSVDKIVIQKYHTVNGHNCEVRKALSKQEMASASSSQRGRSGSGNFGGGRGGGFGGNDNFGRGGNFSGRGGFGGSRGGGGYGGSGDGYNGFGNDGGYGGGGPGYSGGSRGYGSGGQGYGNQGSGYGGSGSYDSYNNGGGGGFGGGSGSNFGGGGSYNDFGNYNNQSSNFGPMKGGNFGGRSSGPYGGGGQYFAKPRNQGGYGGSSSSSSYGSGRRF

Molecule | Kd (hnRNP A1 (cited work) [1]) [nM] | Kd (hnRNP A1 (cited work) [2]) [nM] | binding result (Lin28 ZnF)
UAUGAUAGGGACUUAGGGUG [hnRNP A1 SELEX winner] | 2.5 | 1 | –
pre-miR-9-1 (structured_RNA) RNA: UCUUUGGUUAUCUAGCUGUAUGAGUGGUGUGGAGUCUUCAUAAAGCUAGAUAACCGAAAGU | – | – | binds
